Tests used:
[1] = target: T1, human receptor tyrosine kinase like orphan receptor 1 (ROR1) (human, UniProt Q01973 30-937); experiment: cell-based or functional assay
[2] = target: T1, human receptor tyrosine kinase like …; experiment: flow cytometry on Jeko-1 cells
[3] = target: T1, human receptor tyrosine kinase like …; experiment: flow cytometry on MDA-MB-231 cells
[4] = target: T1, human receptor tyrosine kinase like …; experiment: flow cytometry on Jeko-1 cells (FIG. 3A)
[5] = target: T1, human receptor tyrosine kinase like …; experiment: flow cytometry on Jeko-1 cells (FIG. 3B)
[6] = target: T1, human receptor tyrosine kinase like …; experiment: binding to Jeko-1 cells; column 'ADC-A Binding KD (nM)', method not described
[7] = target: T1, human receptor tyrosine kinase like …; experiment: binding to MDA-MB-231 cells; column 'ADC-A Binding KD (nM)', method not described
[8] = target: T1, human receptor tyrosine kinase like …; experiment: flow cytometry on Jeko-1 cells, PE anti-human IgG secondary, % maximal binding
[9] = target: T1, human receptor tyrosine kinase like …; experiment: flow cytometry on MDA-MB-231 cells, PE anti-human IgG secondary, % maximal binding
[10] = target: T1, human receptor tyrosine kinase like …; experiment: binding to Jeko cells; column 'ADC-L Binding KD (nM)', method not described
[11] = target: T1, human receptor tyrosine kinase like …; experiment: binding to Jeko cells; column 'ADC-M Binding KD (nM)', method not described
[12] = target: T1, human receptor tyrosine kinase like …; experiment: binding to Jeko cells; column 'ADC-N Binding KD (nM)', method not described
[13] = target: T1, human receptor tyrosine kinase like …; experiment: binding to Jeko cells; column 'ADC-O Binding KD (nM)', method not described
[14] = target: T1, human receptor tyrosine kinase like …; experiment: binding to Jeko cells; column 'ADC-P Binding KD (nM)', method not described
[15] = target: T1, human receptor tyrosine kinase like …; experiment: binding to Jeko cells; column 'ADC-Q Binding KD (nM)', method not described
[16] = target: T1, human receptor tyrosine kinase like …; experiment: binding to Jeko cells; column 'ADC-R Binding KD (nM)', method not described

T1 sequence (Q01973 30-937): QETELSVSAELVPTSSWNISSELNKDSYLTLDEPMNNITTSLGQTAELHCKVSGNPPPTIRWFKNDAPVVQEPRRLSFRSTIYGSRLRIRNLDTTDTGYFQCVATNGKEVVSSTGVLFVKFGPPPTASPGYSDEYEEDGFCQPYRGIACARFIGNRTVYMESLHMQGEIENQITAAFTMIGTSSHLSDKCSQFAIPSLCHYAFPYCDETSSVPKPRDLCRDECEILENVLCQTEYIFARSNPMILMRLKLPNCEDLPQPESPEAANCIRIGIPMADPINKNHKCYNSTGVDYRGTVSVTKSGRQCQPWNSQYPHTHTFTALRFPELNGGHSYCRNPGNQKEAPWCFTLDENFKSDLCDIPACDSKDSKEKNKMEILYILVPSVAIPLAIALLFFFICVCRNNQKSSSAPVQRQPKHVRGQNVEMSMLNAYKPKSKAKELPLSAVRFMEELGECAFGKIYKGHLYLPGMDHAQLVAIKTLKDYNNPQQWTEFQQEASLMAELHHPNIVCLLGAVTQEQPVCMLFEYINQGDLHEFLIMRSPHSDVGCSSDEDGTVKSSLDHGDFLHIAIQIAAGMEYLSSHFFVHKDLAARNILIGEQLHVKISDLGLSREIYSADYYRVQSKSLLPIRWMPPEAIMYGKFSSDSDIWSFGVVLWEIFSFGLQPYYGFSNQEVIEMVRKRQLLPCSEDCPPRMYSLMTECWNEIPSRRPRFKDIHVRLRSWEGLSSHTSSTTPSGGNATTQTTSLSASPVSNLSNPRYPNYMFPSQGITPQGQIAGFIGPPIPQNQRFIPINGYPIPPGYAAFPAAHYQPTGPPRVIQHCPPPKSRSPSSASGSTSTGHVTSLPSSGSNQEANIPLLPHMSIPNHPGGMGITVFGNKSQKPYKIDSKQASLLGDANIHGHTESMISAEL

B1: ADC-E (antibody, human IgG1, kappa, V domains shown)
VH: QVQLQESGPGLVKPSQTLSLTCTVSGYAFTAYNIHWVRQAPGQGLEWMGSFDPYDGGSSYNQKFKDRLTISKDTSKNQVVLTMTNMDPVDTATYYCARGWYYFDYWGHGTLVTVSS
VL: DIVMTQTPLSLPVTPGEPASISCRASKSISKYLAWYQQKPGQAPRLLIYSGSTLQSGIPPRFSGSGYGTDFTLTINNIESEDAAYYFCQQHDESPYTFGEGTKVEIKR
modifications: SC-VC-PAB-MMAE bonded via lysine residues of the antibody (chain and positions not stated)
- IC50, cell viability (CellTiter-Glo, 72 h), Bt549 cells [1]: 74.4 nM
- IC50, cell viability (CellTiter-Glo, 72 h), DOHH2 cells [1]: 89.6 nM
- IC50, cell viability (CellTiter-Glo, 72 h), HBL-1 cells [1]: 147 nM
- IC50, cell viability (CellTiter-Glo, 72 h), JHOM1 cells [1]: 32.9 nM
- IC50, cell viability (CellTiter-Glo, 72 h), MDA-MB-468 cells [1]: 80.1 nM
- IC50, cell viability (CellTiter-Glo, 72 h), SKOvr3 cells [1]: 201 nM
- IC50, cell viability (CellTiter-Glo, 72 h), TMD-8 cells [1]: 94.3 nM
- IC50, cell viability (CellTiter-Glo, 72 h), TOV112D cells [1]: 57.8 nM

B2: ADC-F (antibody, human IgG1, kappa, V domains shown)
VH: B1 VH
VL: B1 VL
modifications: SC-VC-PAB-DM1 bonded via lysine residues of the antibody (chain and positions not stated)
- IC50, cell viability (CellTiter-Glo, 72 h), A2008 cells [1]: > 1000 nM
- IC50, cell viability (CellTiter-Glo, 72 h), Bt549 cells [1]: > 1000 nM
- IC50, cell viability (CellTiter-Glo, 72 h), DOHH2 cells [1]: > 1000 nM
- IC50, cell viability (CellTiter-Glo, 72 h), HBL-1 cells [1]: > 1000 nM
- IC50, cell viability (CellTiter-Glo, 72 h), HCC1187 cells [1]: > 1000 nM
- IC50, cell viability (CellTiter-Glo, 72 h), JHOM1 cells [1]: > 1000 nM
- IC50, cell viability (CellTiter-Glo, 72 h), MDA-MB-468 cells [1]: > 1000 nM
- IC50, cell viability (CellTiter-Glo, 72 h), SKOvr3 cells [1]: > 1000 nM
- IC50, cell viability (CellTiter-Glo, 72 h), TMD-8 cells [1]: > 1000 nM
- IC50, cell viability (CellTiter-Glo, 72 h), TOV112D cells [1]: > 1000 nM

B3: ADC-A (antibody, human IgG1, kappa, V domains shown)
VH: B1 VH
VL: B1 VL
modifications: MC-VC-PAB-MMAE bonded via cysteine residues of the antibody (chain and positions not stated); MC-VC-PAB-MMAE bonded via cysteine residues of the antibody (chain and positions not stated); DAR 3.89 to 5.09
notes: Antibody-drug conjugate of Ab1; also called Ab1-MC-VC-PAB-MMAE
- IC50, cell viability (CellTiter-Glo, 72 h), A2008 cells [1]: 125 nM
- IC50, cell viability (CellTiter-Glo, 72 h), Bt549 cells [1]: 13.5 nM
- IC50, cell viability (CellTiter-Glo, 72 h), DOHH2 cells [1]: 129 nM
- IC50, cell viability (CellTiter-Glo, 72 h), HBL-1 cells [1]: 118 nM
- IC50, cell viability (CellTiter-Glo, 72 h), HCC1187 cells [1]: 6.8 nM
- IC50, cell viability (CellTiter-Glo, 72 h), JHOM1 cells [1]: 15.6 nM
- IC50, cell viability (CellTiter-Glo, 72 h), MDA-MB-468 cells [1]: 23.5 nM
- IC50, cell viability (CellTiter-Glo, 72 h), SKOvr3 cells [1]: 62.6 nM
- IC50, cell viability (CellTiter-Glo, 72 h), TMD-8 cells [1]: 122 nM
- IC50, cell viability (CellTiter-Glo, 72 h), TOV112D cells [1]: 62.4 nM
- EC50 [2]: 0.017 µg/mL
- EC50 [3]: 0.0485 µg/mL
- EC50 [4]: 0.0216 µg/mL
- EC50 [5]: 0.0221 µg/mL
- Kd [6]: 0.1 nM
- Kd [7]: 0.32 nM

B4: ADC-B (antibody, human IgG1, kappa, V domains shown)
VH: B1 VH
VL: B1 VL
modifications: SMCC-DM1 bonded via lysine residues of the antibody (chain and positions not stated); SMCC-DM1 bonded via lysine residues of the antibody (chain and positions not stated); DAR 3.0 to 3.20
- IC50, cell viability (CellTiter-Glo, 72 h), A2008 cells [1]: 49 nM
- IC50, cell viability (CellTiter-Glo, 72 h), Bt549 cells [1]: 20.2 nM
- IC50, cell viability (CellTiter-Glo, 72 h), DOHH2 cells [1]: 78.3 nM
- IC50, cell viability (CellTiter-Glo, 72 h), HBL-1 cells [1]: 70.1 nM
- IC50, cell viability (CellTiter-Glo, 72 h), HCC1187 cells [1]: 6.2 nM
- IC50, cell viability (CellTiter-Glo, 72 h), JHOM1 cells [1]: 24.3 nM
- IC50, cell viability (CellTiter-Glo, 72 h), MDA-MB-468 cells [1]: 18.8 nM
- IC50, cell viability (CellTiter-Glo, 72 h), SKOvr3 cells [1]: 78.7 nM
- IC50, cell viability (CellTiter-Glo, 72 h), TMD-8 cells [1]: 50 nM
- IC50, cell viability (CellTiter-Glo, 72 h), TOV112D cells [1]: 34.2 nM

B5: ADC-C (antibody, human IgG1, kappa, V domains shown)
VH: B1 VH
VL: B1 VL
modifications: MAL-VC-PAB-DM1 bonded via cysteine residues of the antibody (chain and positions not stated)
- IC50, cell viability (CellTiter-Glo, 72 h), A2008 cells [1]: > 1000 nM
- IC50, cell viability (CellTiter-Glo, 72 h), Bt549 cells [1]: > 1000 nM
- IC50, cell viability (CellTiter-Glo, 72 h), DOHH2 cells [1]: > 1000 nM
- IC50, cell viability (CellTiter-Glo, 72 h), HBL-1 cells [1]: > 1000 nM
- IC50, cell viability (CellTiter-Glo, 72 h), HCC1187 cells [1]: > 1000 nM
- IC50, cell viability (CellTiter-Glo, 72 h), JHOM1 cells [1]: > 1000 nM
- IC50, cell viability (CellTiter-Glo, 72 h), MDA-MB-468 cells [1]: > 1000 nM
- IC50, cell viability (CellTiter-Glo, 72 h), SKOvr3 cells [1]: > 1000 nM
- IC50, cell viability (CellTiter-Glo, 72 h), TMD-8 cells [1]: > 1000 nM
- IC50, cell viability (CellTiter-Glo, 72 h), TOV112D cells [1]: > 1000 nM

B6: Ab1 (antibody, human IgG1, kappa, V domains shown)
VH: B1 VH
VL: B1 VL
notes: also called unconjugated Ab1; parental antibody Ab1
- EC50 [4]: 0.0164 µg/mL
- EC50 [5]: 0.0165 µg/mL
- EC50 [8]: 0.0136 µg/mL
- EC50 [9]: 0.0328 µg/mL

B7: D10 (antibody, V domains shown)
VH: QVQLKESGPGLVAPSQTLSITCTVSGFSLTSYGVHWVRQPPGKGLEWLGVIWAGGFTNYNSALKSRLSISKDNSKSQVLLKMTSLQTDDTAMYYCARRGSSYSMDYWGQGTSVIVSS
VL: EIVLSQSPAITAASLGQKVTITCSASSNVSYIHWYQQRSGTSPRPWIYEISKLASGVPVRFSGSGSGTSYSLTISSMEAEDAAIYYCQQWNYPLITFGSGTKLEIQ
notes: also called antibody D10
- EC50 [5]: 0.25 µg/mL

B8: ADC-S (antibody, V domains shown)
VH: B7 VH
VL: B7 VL
modifications: MAL-VC-PAB-MMAE bonded via cysteine residues of the antibody (positions not stated)
notes: Antibody-drug conjugate of D10; also called D10-MAL-VC-PAB-MMAE
- EC50 [5]: 0.15 µg/mL

B9: ADC-L (antibody, human IgG1, kappa, V domains shown)
VH: B1 VH
VL: B1 VL
modifications: MAL-DPR-VC-PAB-MMAE bonded via cysteine residues of the antibody (chain and positions not stated)
notes: Antibody-drug conjugate of Ab1; also called Ab1-MAL-DPR-VC-PAB-MMAE
- Kd [10]: 0.15 nM

B10: ADC-M (antibody, human IgG1, kappa, V domains shown)
VH: B1 VH
VL: B1 VL
modifications: MAL-Phe-C4-VC-PAB-MMAE bonded via cysteine residues of the antibody (chain and positions not stated)
notes: Antibody-drug conjugate of Ab1; also called Ab1-MAL-Phe-C4-VC-PAB-MMAE
- Kd [11]: 0.12 nM

B11: ADC-N (antibody, human IgG1, kappa, V domains shown)
VH: B1 VH
VL: B1 VL
modifications: MAL-PEG4-VC-PAB-DMEA-PNU-159682 bonded via cysteine residues of the antibody (chain and positions not stated)
notes: Antibody-drug conjugate of Ab1; also called Ab1-MAL-PEG4-VC-PAB-DMEA-PNU-159682
- Kd [12]: 0.13 nM

B12: ADC-O (antibody, human IgG1, kappa, V domains shown)
VH: B1 VH
VL: B1 VL
modifications: MAL-C2-Gly3-EDA-PNU-159682 bonded via cysteine residues of the antibody (chain and positions not stated)
notes: Antibody-drug conjugate of Ab1; also called Ab1-MAL-C2-Gly3-EDA-PNU-159682
- Kd [13]: 0.12 nM

B13: ADC-P (antibody, human IgG1, kappa, V domains shown)
VH: B1 VH
VL: B1 VL
modifications: MAL-Phe-C4-VC-PAB-DMEA-PNU-159682 bonded via cysteine residues of the antibody (chain and positions not stated)
notes: Antibody-drug conjugate of Ab1; also called Ab1-MAL-Phe-C4-VC-PAB-DMEA-PNU-159682
- Kd [14]: 0.11 nM

B14: ADC-Q (antibody, human IgG1, kappa, V domains shown)
VH: B1 VH
VL: B1 VL
modifications: deglycosylated with PNGase F; azido-PEG3-amine put on glutamine residues by microbial transglutaminase, then DBCO-(PEG2-VC-PAB-MMAE)2 via a triazole (chain and positions not stated); DAR 4.4
notes: also called Ab1-DBCO-(PEG2-VC-PAB-MMAE)2
- Kd [15]: 0.23 nM

B15: ADC-R (antibody, human IgG1, kappa, V domains shown)
VH: B1 VH
VL: B1 VL
modifications: deglycosylated with PNGase F; azido-PEG3-amine put on glutamine residues by microbial transglutaminase, then DBCO-PEG4-VC-PAB-DMEA-PNU-159682 via a triazole (chain and positions not stated); DAR 2.1
notes: also called Ab1-DBCO-PEG4-VC-PAB-DMEA-PNU-159682
- Kd [16]: 0.25 nM

B16: 4A5 (antibody, V domains shown)
VH: EVKLVESGGGLVKPGGSLKLSCAASGFTFSSYAMSWVRQIPEKRLEWVASISRGGTTYYPDSVKGRFTISRDNVRNILYLQMSSLRSEDTAMYYCGRYDYDGYYAMDYWGQGTSVTVSS
VL: DIKMTQSPSSMYASLGERVTITCKASPDINSYLSWFQQKPGKSPKTLIYRANRLVDGVPSRFSGGGSGQDYSLTINSLEYEDMGIYYCLQYDEFPYTFGGGTKLEMK
notes: also called anti-ROR1 antibody 4A5
- EC50 [4]: 0.121 µg/mL

B17: ADC-T (antibody, V domains shown)
VH: B16 VH
VL: B16 VL
modifications: MAL-VC-PAB-MMAE bonded via cysteine residues of the antibody (positions not stated)
notes: Antibody-drug conjugate of 4A5; also called 4A5-MAL-VC-PAB-MMAE
- EC50 [4]: 0.193 µg/mL
